{
  "source": "patent JP2012034697A",
  "biological_target": "Aβ(βアミロイドペプチド) (UniProt P05067)",
  "sequence (P05067 672-713 limits assumed)": "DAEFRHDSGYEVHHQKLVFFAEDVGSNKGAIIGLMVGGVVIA",
  "assay": "BIAcore",
  "data": [
    {"substance": "マウスモノクローナル抗体3D6 (antibody)", "values": [
      {"measurement": "Kd", "result": 0.88, "unit": "nM"}
    ]}
  ]
}
